This passage reports activity results from patent US20120204282.

Experiment in all cases: cell_activity
For series [1], the system named is ZFN 23974 (synthetic construct). The conditions noted are these: Cel-I assay; as pair 23966/23974.
Series [2] has as its system ZFN 22524 (synthetic construct). The conditions noted are these: Cel-I assay; as pair 22524/23947; pair also used for in vivo Q344X correction in mouse retina.
Series [3] concerns ZFN 22529 (synthetic construct). The note with it: Cel-I assay; as pair 23950/22529.
In series [4] the test system is ZFN 23950 (synthetic construct). The conditions noted are these: Cel-I assay; as pair 23950/22529.
Series [5] relates to ZFN 23966 (synthetic construct). The conditions noted are these: Cel-I assay; as pair 23966/23974.
The subject of series [6] is ZFN 23947 (synthetic construct). The note with it: Cel-I assay; as pair 22524/23947; pair also used for in vivo Q344X correction in mouse retina.

In series [1], “ATGTCCAGGCTGCTGCCTCGGTCCCATT (double strand) [RHO intron 1 site for 23974]” had an activity of 9.3 % NHEJ.
With “CAGTGGGTTCTTGCCGCAGCAGATGGTG (double strand) [RHO exon 5 site for 22524]”, in series [2], the activity came out at 11.5 % NHEJ.
As for “GAGCCATGGCAGTTCTCCATGCTGGCCG (double strand) [RHO exon 1 site for 22529]”, the activity in series [3] came to 8.7 % NHEJ.
Sequence “GCCAGGTAGTACTGTGGGTACTCGAAGG (double strand) [RHO exon 1 site for 23950]” gave an activity in series [4] of 8.7 % NHEJ.
As for “GGGGAGACAGGGCAAGGCTGGCAGAGAG (double strand) [RHO intron 1 site for 23966]”, in series [5], the activity worked out at 9.3 % NHEJ.
In turn, “GTGACGATGAGGCCTCTGCTACCGTGTC (double strand) [RHO exon 5 site for 23947]” came in with an activity in series [6] of 11.5 % NHEJ.
